Test results reported in patent US20200079833A1 (AstraZeneca / MedImmune, published 2020).
Starred links: 1 amine or outer side, 2 acyl side, 3 side chain; linkers in the order of their positions; H or OH if unused. Non-standard residues stand in square brackets, D forms with d. Groups on a side chain read outwards from the residue. Primed or numbered codes have the meaning given here. No end group written: not given here. *: point of attachment. γGlu = O=C(O)[C@H](CCC(=O)[*:2])N[*:1]; Stearoyl = CCCCCCCCCCCCCCCCCC(=O)*; Palmitoyl = CCCCCCCCCCCCCCCC(=O)*; αMeF = C[C@](N)(Cc1ccccc1)C(=O)O; αMeK = C[C@](N)(CCCCN)C(=O)O; αMeS = C[C@](N)(CO)C(=O)O; PEG2′ = not defined here; Aib = CC(C)(N)C(=O)O

T1: glucose-dependent insulinotropic peptide (gastric inhibitory polypeptide) receptor (GIPR) (human, UniProt P48546 22-466)
T1 sequence (looked up): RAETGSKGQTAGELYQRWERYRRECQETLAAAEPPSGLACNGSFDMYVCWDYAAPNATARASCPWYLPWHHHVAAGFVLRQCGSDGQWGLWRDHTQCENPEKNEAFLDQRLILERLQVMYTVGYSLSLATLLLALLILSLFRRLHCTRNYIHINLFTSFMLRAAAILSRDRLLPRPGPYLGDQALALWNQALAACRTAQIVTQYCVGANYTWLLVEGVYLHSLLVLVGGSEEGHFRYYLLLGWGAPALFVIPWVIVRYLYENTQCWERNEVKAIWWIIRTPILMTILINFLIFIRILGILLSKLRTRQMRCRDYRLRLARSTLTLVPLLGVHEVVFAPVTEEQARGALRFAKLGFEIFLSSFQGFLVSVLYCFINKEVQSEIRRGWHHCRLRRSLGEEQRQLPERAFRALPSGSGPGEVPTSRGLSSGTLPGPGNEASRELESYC

B1: SEQ ID NO 117 (peptide)
peptide: H[Aib]EGS[αMeF]TSDV[αMeS]K([PEG2′-PEG2′-γGlu-Stearoyl])[αMeF]LEGEAA[αMeK]E[αMeF]IA[αMeF]VV[αMeK]GG-NH2
B2: SEQ ID NO 106 (peptide)
peptide: H[Aib]EGS[αMeF]TSDV[αMeS]S[αMeF]LEGEAA[αMeK]E[αMeF]K([PEG2′-PEG2′-γGlu-Stearoyl])A[αMeF]VV[αMeK]GG-NH2
B3: SEQ ID NO 115 (peptide)
peptide: H[Aib]EGS[αMeF]TSDV[αMeS]S[αMeF]K([PEG2′-PEG2′-γGlu-Stearoyl])EGEAA[αMeK]E[αMeF]IA[αMeF]VV[αMeK]GG-NH2
B4: SEQ ID NO 110 (peptide)
peptide: H[Aib]EGS[αMeF]TSDV[αMeS]S[αMeF]LEGEAK([PEG2′-PEG2′-γGlu-Stearoyl])[αMeK]E[αMeF]IA[αMeF]VV[αMeK]GG-NH2
B5: SEQ ID NO 104 (peptide)
peptide: H[Aib]EGS[αMeF]TSDV[αMeS]S[αMeF]LEGEAA[αMeK]E[αMeF]IAK([PEG2′-PEG2′-γGlu-Stearoyl])VV[αMeK]GG-NH2
B6: SEQ ID NO 109 (peptide)
peptide: H[Aib]EGS[αMeF]TSDV[αMeS]S[αMeF]LEGEAAK([PEG2′-PEG2′-γGlu-Palmitoyl])E[αMeF]IA[αMeF]VV[αMeK]GG-NH2
B7: SEQ ID NO 111 (peptide)
peptide: H[Aib]EGS[αMeF]TSDV[αMeS]S[αMeF]LEGEK([PEG2′-PEG2′-γGlu-Stearoyl])A[αMeK]E[αMeF]IA[αMeF]VV[αMeK]GG-NH2
B8: SEQ ID NO 121 (peptide)
peptide: H[Aib]EGS[αMeF]TK([PEG2′-PEG2′-γGlu-Stearoyl])DV[αMeS]S[αMeF]LEGEAA[αMeK]E[αMeF]IA[αMeF]VV[αMeK]GG-NH2
B9: SEQ ID NO 118 (peptide)
peptide: H[Aib]EGS[αMeF]TSDVK([PEG2′-PEG2′-γGlu-Stearoyl])S[αMeF]LEGEAA[αMeK]E[αMeF]IA[αMeF]VV[αMeK]GG-NH2

Each binder was assayed against GLP-1 receptor (GLP-1R) (human, UniProt P43220 24-463) (assay: cell-based or functional assay).

Row | cAMP Mean pM GLP-1R | cAMP Primary assay EC50 GLP-1R n1 | cAMP Primary assay EC50 GLP-1R n2 | Binder
1 | 25 pM | 0.026 nM | 0.0244 nM | B1
2 | 6140 pM | 6.5 nM | 5.79 nM | B2
3 | 6 pM | 0.006 nM | 0.00539 nM | B3
4 | 62 pM | 0.06 nM | 0.0639 nM | B4
5 | 5 pM | 0.0059 nM | 0.00511 nM | B5
6 | 34 pM | 0.034 nM | 0.0346 nM | B6
7 | 17 pM | 0.018 nM | 0.0164 nM | B7
8 | 25100 pM | 25 nM | 25.1 nM | B8
9 | 783 pM | 0.81 nM | 0.758 nM | B9

Each binder was assayed against T1, glucose-dependent insulinotropic … (assay: cell-based or functional assay).

Row | cAMP Primary assay EC50 GIP-R | cAMP Primary assay EC50 GIP-R (2nd) | Binder
10 | 25 nM | 25.1 nM | B1
11 | 25 nM | 25.3 nM | B2
12 | 25 nM | 25.3 nM | B3
13 | 25 nM | 25 nM | B4
14 | 26 nM | 25.6 nM | B5
15 | 26 nM | 25.6 nM | B6
16 | 25 nM | 25 nM | B7
17 | 25 nM | 25.1 nM | B8
18 | 25 nM | 25.2 nM | B9

These binders were tested against glucagon receptor (GCGR) (human, UniProt P47871 26-477) (assay: cell-based or functional assay).
Sequence of glucagon receptor (GCGR) (P47871 26-477): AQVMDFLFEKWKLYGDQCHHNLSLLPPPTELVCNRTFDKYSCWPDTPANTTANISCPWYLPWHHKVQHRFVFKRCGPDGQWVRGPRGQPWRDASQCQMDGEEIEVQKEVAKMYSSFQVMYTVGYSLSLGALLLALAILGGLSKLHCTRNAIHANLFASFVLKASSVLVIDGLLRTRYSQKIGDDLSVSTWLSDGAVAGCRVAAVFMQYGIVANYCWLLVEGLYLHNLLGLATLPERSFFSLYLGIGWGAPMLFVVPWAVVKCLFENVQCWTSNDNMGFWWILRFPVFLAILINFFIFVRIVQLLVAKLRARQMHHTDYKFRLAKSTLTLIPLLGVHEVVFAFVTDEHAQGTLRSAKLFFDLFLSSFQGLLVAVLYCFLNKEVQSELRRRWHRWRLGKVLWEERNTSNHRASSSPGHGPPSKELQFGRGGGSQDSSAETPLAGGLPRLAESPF

Row | cAMP Primary assay EC50 Gluc-R | cAMP Primary assay EC50 Gluc-R (2nd) | Binder
19 | 25 nM | 25.1 nM | B1
20 | 25 nM | 25.3 nM | B2
21 | 25 nM | 25.3 nM | B3
22 | 25 nM | 25 nM | B4
23 | 26 nM | 25.6 nM | B5
24 | 26 nM | 25.6 nM | B6
25 | 25 nM | 25 nM | B7
26 | 25 nM | 25.1 nM | B8
27 | 25 nM | 25.2 nM | B9
